According to paper PMC3830444 (BMC Biochemistry, 2013):
Ends that are not written are not given here.

Biological target: human α-thrombin (human, UniProt P00734 364-622)
Assay: ELISA
Conditions: both partners purified

Binder | IC50 [nM]
Ac-GDFEPIPEDAYDE (not fully specified (C-terminus)) [H6HV3_(54-66)G6 synthetic peptide] | 1400
Ac-GDFEPIPEDAYDE [H6HV3_(54-66) synthetic peptide] | 740
